Data taken from the supplement of paper PMC9170038.

System: MS2 coat protein
Assay: apparent KD of MS2 coat protein; designed switch direction (-1 OFF switch, 1 ON switch): 1; higher = weaker reporter binding
Outline: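 Designed RNA switches with common flanks were transcribed on Illumina chips by stalled E. coli RNA polymerase and titrated with SNAP-549-labelled MS2 coat protein, from 0.7 or 1.5 nM doubling to 3 µM, in Tris-HCl pH 7.5 buffer with KCl, MgCl2, BSA, DTT, tRNA and Tween-20. Steps lasted 0.8–1.5 h (lowest) to 10–20 min (highest). Titrations ran without input, with 200 uM small-molecule ligand, or with an oligonucleotide input. Normalised cluster fluorescence was curve-fitted, and apparent KD is the per-design median over clusters.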

[1] = input ligand: microRNA oligo, concentration not stated
[2] = Eterna round: R95, input ligand: FMN 200 uM
[3] = Eterna round: R95, input ligand: microRNA oligo, concentration not stated
[4] = Eterna round: R95, input ligand: none

Sequence | apparent KD of MS2 coat protein (input ligand: FMN 200 uM) | apparent KD of MS2 coat protein [1] | apparent KD of MS2 coat protein (input ligand: none) | apparent KD of MS2 coat protein [2] | apparent KD of MS2 coat protein [3] | apparent KD of MS2 coat protein [4]
CGAAGUCGUAGAGGAUAUGGGUGGCCGGAGUCAACAUGAGGAUCACCCAUGUGCUAAUAUGAGAUCCAGAAGGCUGCGAACGGG [Eternabot solution 16] (Eterna round: R96, puzzle: Same State NG 2) | 57.1 nM | 31.4 nM | 430 nM | – | – | –
CGCCGACAUGAGGAUCACCCAUGUGAGCGACUCACAGGAUAUACGCGAUAACAAAGUCGCGUAGAAGGGUGCUCCU [Iscezaso] (puzzle: Same State 1) | – | – | – | 23.4 nM | 19.2 nM | 23.3 nM
CGCGAACAGGCAGGAUAUAUAGAGCCAAAUAUUGUAGAAGGGCCACGUGCGGGAAGAGAACACAUGAGGAUCACCCAUGUUCGA [Eternabot solution 5] (Eterna round: R96, puzzle: Same State NG 1) | 27.4 nM | 27.9 nM | 30.7 nM | – | – | –
CGGCGCUGUCGAGAGGAUAUGCGGUGAUGGACAUGAGGAUCACCCAUGUUAGCGAUAGCAUCACGGUAGAAGGCUCUUACGCCUG [Soteed Omei mod 23] (Eterna round: R96, puzzle: Same State 2) | 217 nM | 257 nM | 717 nM | – | – | –
CGGCGCUGUCGAGAGGAUAUGCGGUGAUGGACAUGAGGAUCACCCAUGUUAGCGAUAGCAUCACGGUAGAAGGCUCUUACGCCUG [Soteed Omei mod 23] (puzzle: Same State 2) | – | – | – | 91.5 nM | 130 nM | 205 nM
CGGCGCUGUUGAGAGGAUAUGCGGUGAUGGACAUGAGGAUCACCCAUGUUAGCGAUAGCAUUACGGUAGAAGGCUCUACAGCUGC [Soteed Omei mod 6] (puzzle: Same State 2) | – | – | – | – | 18.9 nM | –
CGGCUCCGUGGAGGAUAUGGGCCUGCCCGGGAUAACGGGCCUAACACAUGAGGAUCACCCAUGUCCCAGAAGGCCGCUGGAGCC [Enineseson] (Eterna round: R96, puzzle: Same State NG 2) | 14 nM | 39.1 nM | 54.4 nM | – | – | –
CGUAGGCCUCUCAACAUGAGGAUCACCCAUGUACGUGAAACGUAGGAUAUCACACAACUAAUGUGUGAGAAGGGCGCGCCGGAG [Eternabot solution 25] (Eterna round: R96, puzzle: Same State NG 3) | – | 91.4 nM | – | – | – | –
CGUCCAGCCUGAGCUGGACAAAAGCAUGUACAUGAGGAUCACCCAUGUUCAUGUACAAGCUUUUUGCUCGUCUUAAC [salish99_208a_r3_039] (puzzle: Sensor for hsa-mir-208a) | – | – | – | 660 nM | 18.2 nM | 616 nM
CGUCCAGCCUGAGCUGGACAAAAGCAUGUACAUGAGGAUCACCCAUGUUCAUGUACAAGCUUUUUGCUCGUCUUAGC [salish99_208a_r3_075] (Eterna round: R96, puzzle: Sensor for hsa-mir-208a) | 598 nM | 13.8 nM | 616 nM | – | – | –
CGUCCAGCCUGAGCUGGACAAAAGCAUGUACAUGAGGAUCACCCAUGUUCAUGUACAAGCUUUUUGCUCGUCUUAGC [salish99_208a_r3_075] (puzzle: Sensor for hsa-mir-208a) | – | – | – | 730 nM | 14.3 nM | 860 nM
CGUCCAGCCUGAGCUGGACAAAAGCAUGUACAUGAGGAUCACCCAUGUUCAUGUACAAGCUUUUUGCUCGUCUUAGG [salish99_208a_r3_074] (puzzle: Sensor for hsa-mir-208a) | – | – | – | 593 nM | 20.1 nM | 744 nM
CUAAAACAUGAGGAUCACCCAUGUCAACAAAGUCGAGGAUAUGGGCAAAUAAAAUAAGAACCAGAAGGCGAAUAAC [salish99_SS1_r3_014] (puzzle: Same State 1) | – | – | – | – | 222 nM | –
CUCCGGAAGCGAGGAUAUGCAGAGGAUCACCCUGCAGAAGGCGCAAAAGCGAGGAUAUGCAGAGGAUCACCCUGCAGAAGGCGC [pwkr ssNG DX.33] (Eterna round: R96, puzzle: Same State NG 1) | 10.2 nM | 33.3 nM | 39.9 nM | – | – | –
CUCCUAUCGGGAGGAUAUGGUGCCUUGUUGGUGCUAGAAGGUCCAACAUGAGGAUCACCCAUGUGGGAGUGGUUGAGAGACCUC [SS NG10LRO13] (Eterna round: R96, puzzle: Same State NG 1) | 131 nM | 105 nM | 137 nM | – | – | –
CUGACGUGAUCAGGAUAUUGUAAGACAAUGUUGCAAGAAGGGAUUAAUGAGCCCGAACAGACAUGAGGAUCACCCAUGUGUCAG [Eternabot solution 41] (Eterna round: R96, puzzle: Same State NG 1) | 69.5 nM | 51.6 nM | 67.6 nM | – | – | –

Sequence | apparent KD of MS2 coat protein (input ligand: FMN 200 uM) | apparent KD of MS2 coat protein [1] | apparent KD of MS2 coat protein (input ligand: none) | apparent KD of MS2 coat protein [2] | apparent KD of MS2 coat protein [3] | apparent KD of MS2 coat protein [4]
CUGAGCGAUCAAGGAUAUCACGUCGAUUAGACGUGAGAAGGUGAUAAUUACAUGAGGAUCACCCAUGUAUAACAUGAAGCUCAG [SSNG1/9-A2] (Eterna round: R96, puzzle: Same State NG 1) | 16 nM | 17.3 nM | 19.8 nM | – | – | –
CUUGCCCAGUCAGGAUAUGGGAAAGGAAGUGUACCAGAAGGGACAAGAAAGGACAUGAGGAUCACCCAUGUCGGGCAGGCGAGA [PowerStrip SSNG 1.23] (Eterna round: R96, puzzle: Same State NG 1) | 32.8 nM | 82.3 nM | 97.1 nM | – | – | –
GAAAUAAUGAAAGGAUAUACAUGAGGAAUUCUCGUAGAAGGUUCAUGACAUGAGGAUCACCCAUGUAUCGCUCGAAAGAGCGAG [Mat - Same State NG 1 - JL mod - D31] (Eterna round: R96, puzzle: Same State NG 1) | 510 nM | 152 nM | 64 nM | – | – | –
GACAAUCUAUCUGAGGAUAUCAUGAAAAAAACAUGAGGAUCACCCAUGUGCAGGAAAACUGCAUAUGAGAAGGCAGAUAGAUUGA [salish99_SS2_r3_009] (Eterna round: R96, puzzle: Same State 2) | – | 453 nM | – | – | – | –
GACAAUCUAUCUGAGGAUAUCAUGAAAAAAACAUGAGGAUCACCCAUGUGCAGGAAAACUGCAUAUGAGAAGGCAGAUAGAUUGA [salish99_SS2_r3_009] (puzzle: Same State 2) | – | – | – | 19.7 nM | 155 nM | 1190 nM
GACAAUCUAUCUGAGGAUAUCAUGAAGAAAACAUGAGGAUCACCCAUGUGCAGGAGAACUGCAAAUGAGAAGGCAGAUAGAUUGG [Mat - Same State 2 - Mod - D2] (puzzle: Same State 2) | – | – | – | 8.71 nM | 13.1 nM | 20.4 nM
GACAGGCAAGCUUUUUUCUCGUAGUGUAAACAUGAGGAUCACCCAUGUGCUCGCCCUAGAUCUUUGGAUCGCAGAAA [Ceedes] (puzzle: Sensor for hsa-mir-208a) | – | – | – | 39.5 nM | 22.6 nM | 50.1 nM
GACAGGCAAGCUUUUUUCUCGUAGUGUAGACAUGAGGAUCACCCAUGUGCUCGCCCUGGAUCUUUGGAUCGCAGAAA [Laaxeso] (puzzle: Sensor for hsa-mir-208a) | – | – | – | 17.7 nM | 14.4 nM | 16.7 nM
GAGAGAGGAUGAGGAUAUGCAGUAAUAAUGAUAGCAGAAGGCAUAGACAUGAGGAUCACCCAUGUGGGAAUAAUCCAGAGAGAG [Parity 1 - Jieux - Same State NG 1] (Eterna round: R96, puzzle: Same State NG 1) | – | 132 nM | – | – | – | –
GAGAGAGGGUGAGGAUAUAGAGUAAUAAUGAUACUAGAAGGCACAGACAUGAGGAUCACCCAUGUGGGAAUAAUCCAGAGAGAG [Parity 5 - Jieux - Same State NG 1] (Eterna round: R96, puzzle: Same State NG 1) | 300 nM | 259 nM | 401 nM | – | – | –
GAGAGAUGAUUAGGAUAUCCGGUGAUAAUGAUAGGAGAAGGAAUUGACAUGAGGAUCACCCAUGUGGGAAUAAUCCAGAGAGAG [Parity 23 - Jieux - Same State NG 1] (Eterna round: R96, puzzle: Same State NG 1) | 128 nM | 54.4 nM | 107 nM | – | – | –
GAGAGAUGAUUAGGAUAUUCGGUGAUAAUGAUAGAAGAAGGAAUUGACAUGAGGAUCACCCAUGUGGGAAUAAUCCAGAGAGAG [Parity 21 - Jieux - Same State NG 1] (Eterna round: R96, puzzle: Same State NG 1) | 148 nM | 77.5 nM | 161 nM | – | – | –
GAGCCAGUCCGAGGAUAUUCAUAUUAACACAUGAGGAUCACCCAUGUAGGCUCAGAAGAGCCUUGGGAGAAGGCGGACUGGCUC [SS-NG2-LRO14] (Eterna round: R96, puzzle: Same State NG 2) | 35.2 nM | 227 nM | 311 nM | – | – | –
GAGCCAGUCCGAGGAUAUUCAUAUUAACACAUGAGGAUCACCCAUGUGGGCUCAGAAGAGCCCUGGGAGAAGGCGGACUGGCUC [SS-NG2-LRO16] (Eterna round: R96, puzzle: Same State NG 2) | 16.5 nM | 232 nM | 297 nM | – | – | –
GAGCCAGUCCGAGGAUAUUCAUUAAAUUAAAUACAUGAGGAUCACCCAUGUAGGCGAGAGCCUUGGGAGAAGGCGGACUGGCUC [Xeonanisa>>4] (Eterna round: R96, puzzle: Same State NG 2) | 15.5 nM | 53.8 nM | 97.6 nM | – | – | –
